Assay results from patent US20260193344A1 (H LUNDBECK A S, published 2026).

T1: human ACTH 1-39 (human, not fully specified; N-terminal biotin in the ELISA and HTRF binding assays (p-1487, p-1488); 125I on Tyr23 in Example 9 (p-1542); unlabelled in SPR. Letters unchanged.)
T1 peptide: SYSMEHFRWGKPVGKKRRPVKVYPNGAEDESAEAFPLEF

T2: human alpha-MSH (ACTH 1-13) (human, not fully specified; ends and bridges not checked)
T2 peptide: Ac-SYSMEHFRWGKPV-NH2

T3: ACTH 1-24 (human)
T3 peptide: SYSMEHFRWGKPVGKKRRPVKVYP


Experiments:
human ACTH 1-39 [1] = target: T1, human ACTH 1-39; experiment: cell-based or functional assay
human ACTH 1-39 [2] = target: T1, human ACTH 1-39; experiment: cell-based or functional assay
human ACTH 1-39 [3] = target: T1, human ACTH 1-39; experiment: cell-based or functional assay
[4] = target: T2, human alpha-MSH (ACTH 1-13); experiment: SPR (ProteOn XPR36), antibody immobilized
Experimental: (§1) Antibody was immobilized to the surface of general amine coupling (GLC or GLM) Chips (Bio-Rad). […] Surfaces were regenerated between analyte queries using 10 mM glycine at pH 2.0.

human ACTH 1-39 [5] = target: T1, human ACTH 1-39; experiment: cell-based or functional assay
ACTH 1-24 = target: T3, ACTH 1-24; experiment: cell-based or functional assay
human ACTH 1-39 [6] = target: T1, human ACTH 1-39; experiment: SPR (ProteOn XPR36), antibody immobilized
Experimental: as §1

Binder	IC50, ACTH-induced cAMP reporter, MC1R cells (human ACTH 1-39 [1])	IC50, ACTH-induced cortisol, Y1 cells (human ACTH 1-39 [2])	IC50, ACTH-induced cAMP, MC2R cells (human ACTH 1-39 [3])	kon [4]	IC50, ACTH-induced cAMP, MC3R cells (human ACTH 1-39 [5])	IC50, ACTH-induced cAMP, MC4R cells (human ACTH 1-39 [5])	IC50, ACTH-induced cAMP, MC5R cells (human ACTH 1-39 [5])	IC50, ACTH 1-24 induced cAMP, MC2R cells (ACTH 1-24)	kon (human ACTH 1-39 [6])
Ab7 (antibody, V domains shown, Full-length rabbit/human chimeric antibody, HEK-293) VH: QSVEESGGRLVTPGTPLTLTCTVSGFSLSSYAMSWVRQAPGEGLEWIGIISDSGSTYYASWAKGRFTISKTSTTVDLRITSPTTEDTATYFCAREPEYGYDDYGDWVSDLWGQGTLVTVSS VL: DIVMTQTPASVEAAVGGTVTIKCQASQSISDYLSWYQQKPGQPPKLLIYRASTLASGVPSRFKGSGSGTQFTLTISDLECADAATYYCQSYYYSSSITYRNAFGGGTEVVVKR	1.29 nM	2.49 nM	0.09 nM	130000 M⁻¹ s⁻¹	64.2 nM	49.7 nM	1100 nM		
Ab6 (antibody, V domains shown) VH: QSVEESGGRLVTPGTPLTLTCTVSGFSLTDYAMSWVRQAPGEGLEWIGIISDSGSTYYASWAKGRFTFSKTSTTVDLRITSPTTEDTATYFCAREPEYGYDEYGDWVSDLWGPGTLVTVSS VL: DIVMTQTPASVEAAVGGAVTIKCQATQSIGNNLAWYQQKPGQPPKLLIYRASTLASGVPSRFKGSGSGTEFTLTISDLECADAATYYCQSYYYSSSITYHNAFGGGTEVVVKR	1.04 nM	1.44 nM	0.03 nM		62.8 nM	55.2 nM	1000 nM	0.1 nM	
Ab9 (antibody, V domains shown) VH: QSVEESGGRLVTPGTPLTLTCTVSGFSLNSYAMSWVRQAPGEGLEWIGIISDSGRTYYASWAKGRFTISKTSTTVDLKITSPTTEDTATYFCAREPEYGYDDYGDWVSDLWGPGTLVTVSS VL: DVVMTQTPASVEAAVGGTVTIKCQASQSISSYLSWYQQKPGQPPKLLIYRASTLASGVPSRFKGSGSGTQFTLTISDLECADAATYYCQSYYYSSSITYRNAFGGGTEVVVKR		3.47 nM	0.12 nM						
Ab5 (antibody, V domains shown) VH: QSVEESGGRLVTPGTPLTLTCTVSGFSLSSYAMSWVRQAPGEGLEWIGIISDSGSTYYASWAKGRFTISKTSTTVDLKITSPTTEDTATYFCAREPEYGYDDYGDWVSDLWGQGTLVTVSS VL: DIVMTQTPASVSEPVGGTVTIKCQASQSISSYLSWYQQKPGQPPKLLIYRASTLASGVPSRFKGSGSGTQFTLTISDLECADAATYYCQSYYYSSSITYRNAFGGGTEVVVKR	1.96 nM	3.49 nM	0.11 nM		58.1 nM	43.4 nM	1000 nM		
Ab13.H (antibody, human IgG1, kappa, N297A, V domains shown) VH: EVQLVESGGGLVQPGGSLRLSCAASGFTVSSGYDICWVRQAPGKGLEWIGCIDTGSGNTYYASSAKGRFTMSRDNSKNTVYLQMNSLRAEDTAVYYCAKGISSIWGQGTLVTVSS VL: DIQMTQSPSTLSASVGDRVTITCQASQTISSDLAWYQQKPGKAPKLLIYAASKLTSGVPSRFSGSGSGTEFTLTISSLQPDDFATYYCQTYYDIIDDGATFGGGTKVEIKR								0.3 nM	
Ab1 (antibody, V domains shown, Full-length rabbit/human chimeric antibody, HEK-293) VH: QSVKESGGRLVTPGTPLTLTCTVSGFSLSNYDMIWVRQAPGKGLESIGMIYDDGDTYYASWAKGRFTISKTSTTVDLKIISPTTEDTATYFCVKGVSNHWGPGTLVTVSS VL: DVVMTQTPASVEAAVGGTVTIKCQASQSISSYLAWYQQKPGQPPKLLIYSASTLASGVPSRFKGRGSGTEFTLTISDLECADAATYYCQSYDGSSGSSYGVGFGGGTEVVVKR	2.38 nM	2.36 nM	0.14 nM		101 nM	56.4 nM	1100 nM		1e+06 M⁻¹ s⁻¹
Ab3 (antibody, V domains shown) VH: QSLEESGGRLVTPGTPLTLTCTVSGSSLSNFDMIWVRQAPGKGLESIGIIYDFGSTYYASWAKGRFTISRTSSTTVDLKIISPTIEDTATYFCVKGVSNIWGQGTLVTVSS VL: DVVMTQTPASVEAAVGGTVTIKCQASEDISSNLAWYQQKLGQPPKLLIYSASTLASGVPSRFKGSGSGTEFTLAISDLECADAATYYCQSYDGSSSSSYGIGFGGGTEVVVKR	4.12 nM	7.72 nM	0.29 nM		58.7 nM	54.2 nM	1100 nM	0.8 nM	
Ab11 (antibody, V domains shown) VH: QSLEESGGRLVTPGTSLTLTCTASGFSLSAYDILWVRQAPGKGLESIGMMYDDGDTYYATWAKGRFIISRTSTTMDLKIISPTTEDTATYFCVKGVSNIWGQGTLVTVSS VL: DIVMTQIPASVEAAVGGTVTIKCQASQSIDSSLAWYQQKPGQPPKLLIYSASTLASGVPSRFKGSGSGTEFTLTIGDLECADAATYYCQSYDGSSSSYYGIGFGGGTEVVVKR	1.49 nM	1.53 nM	0.03 nM		108 nM	49.4 nM	4200 nM		
Ab10 (antibody, V domains shown) VH: QSVEESGGRLVTPGTPLTLTCTVSGFSLSSADMIWVRQAPGKGLESIGMIYDDGDTYYATWAKGRFTISKTSTTVDLKIISPTTEDTATYFCVKGVSSVWGQGTLVTVSS VL: DVVMTQTPASVEAAVGGTVTINCQASENIYRSLAWYQQKPGQPPKLLIYSASTLASGVPSRFKGSGSGTEFTLTISDLECADAATYYCQSYDGSSSSSYGVGFGGGTEVVVKR	2.14 nM	5.98 nM	0.16 nM		133 nM	66.3 nM	5400 nM		
Ab12 (antibody, V domains shown) VH: QSVEESGGRLVTPGTPLTLTCTVSGSSLSDYDMIWVRQAPGKGLESIGIIYDDGDTYYATWAKGRFTISKTSTTVDLRIISPTTEDTATYFCVKGVSNMWGPGTLVTVSS VL: DVVMTQTPSSVSAAVGGTVTIKCQASQSIGSSLAWYQQKPGQRPKLLIYAASTLASGVPSRFKGSGSGTEFTLTISDLECADAATYYCQSYDGSSSSSYGVGFGGGTEVVVKR	1.66 nM	2.68 nM	0.05 nM						
Ab2 (antibody, V domains shown) VH: QSVEESGGRLVTPGTPLTLTCTVSGFSLSKYDMIWVRQAPGKGLESIGIIYDDGDTYYASWAKGRFTISQTSTTVDLKIISPTTEDTATYFCVKGVSNIWGQGTLVTVSS VL: DVVMTQTPASVEAAVGGTVTIKCQASQSISNYLAWYQQKTGQPPKLLIYSASTLASGVPSRFKGSGSGTEFTLTISDLECADAATYYCQSYEGSSSSSYGVGFGGGTEVVVKR	3.62 nM		0.25 nM		79 nM	54.5 nM	1100 nM	1.3 nM	
Ab13 (antibody, human IgG1, kappa, N297A, V domains shown) VH: QQLEESGGGLVKPGGTLTLTCTASGFSFSSGYDICWARQGPGKGLEWIGCIDTGSGNTYYASWAKGRFTMSRTSSTTVTLQVTSLTAADTATYFCAKGISSIWGPGTLVTVSS VL: DIVMTQTPASVSEPVGGTVTIKCQASQTISSDLAWYQQKPGQPPKLLIYAASKLTSGVSSRFKGGGTGTQFTLTISDLECADAATYYCQTYYDIIDDGCTFGGGTEVVVKR								1 nM	
